Assay results reported in patent publication US8642565B2, “Increase of immune response and targeting by antigens and/or drug linkage” (Wittycell, priority 2007, dated 2014).

Columns and labels:
[1] = test system: SIINFEKL (SEQ ID NO:1) induced CD8+ T cell response; SINFEKL-loaded targets; assay: VITAL in vivo cytotoxicity assay, intravenous immunization (Example 1); set-up: species or system C57BI/6J CD45.2 female mice; conditions: 1 μg to 100 μg of Ova peptide alone, day 0, read out day 11
[2] = test system: OVA specific IgG2a antibodies; assay: Ovalbumin-specific IgG2a antibody titer after immunization (Example 4); assay type: in vivo, mice; conditions: 1 μg conjugate, intramuscular route, day 0 and day 14, samples 14 days after second immunization; compared with 50 μg of OVA alone (FIG. 5)
Method: (§1) The aim of this study was to evaluate IgG1 and IgG2a antibody response following immunization with ovalbumin in combination with different adjuvant covalently linked.
(§2) The sera tested were as follows:
(§3) Group 1; 6 mice immunized with 500 μg of ova protein with CFA/IFA (Positive control)
(§4) Group 2: 6 mice immunized with 50 μg of long ova peptide of sequence […] (SEQ ID NO:3; amino acids 316 to 338 of ovalbumin)
(§5) Group 3: 6 mice immunized with 50 μg of short ova peptide of sequence KISQAVHAAHA (SEQ ID NO:4; amino acids 323 to 333 of ovalbumin)
(§6) Group 4: 6 mice immunized with 1 μg PBS-6-OVA
(§7) Group 5: 6 mice immunized with 1 μg PBS-14-OVA
(§8) Group 6: 6 mice immunized with 1 μg PBS-57-OVA
(§9) All mice were immunized by intramuscular route at day 0 and day 14. All samples were collected 14 days following the second immunization and the IgG1 and IgG2a titers specific of ovalbumin were evaluated.

[3] = test system: OVA specific IgG1 antibodies; assay: Ovalbumin-specific IgG1 antibody titer after immunization (Example 4); assay type: in vivo, mice; conditions: 1 μg conjugate, intramuscular route, day 0 and day 14, samples 14 days after second immunization; compared with 50 μg of OVA alone (FIG. 4)
Method: as §1, §2, §3, §4, §5, §6, §7, §8, §9

[4] = test system: SIINFEKL (SEQ ID NO:1) induced CD8+ T cell response; assay: VITAL in vivo cytotoxicity assay, intramuscular immunization, OVA (Example 3); set-up: species or system C57BI/6J CD45.2 female mice; conditions: 1 μg conjugate, day 0, compared with mice treated with 50 μg of OVA alone (FIG. 3)
Method: Sixty-nine 9 week-old C57BI/6J CD45.2 female mice were used for immunisation. They were split into 14 groups: groups 1 to 5 included 3 animals, and groups 6 to 14 included 6 animals.
The in vivo cytotoxicity of SIINFEKL (SEQ ID NO:1) induced CD8^+ T cell response was evaluated by VITAL assay as described in Example 1.
The short ovalbumin peptide consists in the SIINFEKL sequence (SEQ ID NO:1; amino acids 257 to 264 of ovalbumin), the long ovalbumin peptide consists in the […] sequence (SEQ ID NO:2; amino acids 250 to 269 of ovalbumin) and the glycolipids used are PBS-6, PBS-14 and PBS-57.
The mice were vaccinated by intramuscular route at day 0 with the following solutions according to the different groups:
The read out was as described in Example 1.

[5] = test system: SIINFEKL-H2K^b specific CD8+ cells; assay: Detection of SIINFEKL specific CD8+ cells by FACS, H-2 Kb SIINFEKL pentamer and CD8 co-staining (Example 2); assay type: in vivo, C57BI/6J CD45.2 female mice; conditions: 1 μg conjugate, intramuscular route, day 0 and 14; compared with mice treated with 50 μg of OVA alone (FIG. 2)
Source text: Forty-eight 9 week-old C57BI/6J CD45.2 female mice were used for immunisation. They were split into 9 groups: groups 1 and 2 included 3 animals and groups 3 to 9 included six animals.
The ovalbumin peptide consists in the […] sequence (SEQ ID NO:2) and the glycolipids used are PBS-6, PBS-14 and PBS-57.
The mice were vaccinated by intramuscular route at day 0 and 14 with the following solutions according to the different groups:
Detection of SIINFEKL specific CD8+ cells was monitored by FACS following H-2 Kb SIINFEKL pentamer and CD8 co-staining.

Molecule	antigen-specific lysis (percent specific lysis) [1]	titer of IgG2a specific of ovalbumin [2]	titer of IgG1 specific of ovalbumin [3]	percentage of SIINFEKL-specific cytolytic activity in the blood [4]	percentage of SIINFEKL-H2K^b specific CD8+ in the blood [5]
Ova peptide: ovalbumine peptide of SIINFEKL sequence (SEQ ID NO:1), amino-acids 257-264 of ovalbumine [reference compound]	no antigen-specific lysis				
OVA covalently linked to PBS-6: Examples 2-4: ovalbumin peptide covalently linked to PBS-6 (Example 2 peptide VSGLEQLESIINFEKLTEWTS) (conjugate, UniProt P01012 2-386, looked up, covalently linked to glycolipid PBS-6) Ovalbumin: GSIGAASMEFCFDVFKELKVHHANENIFYCPIAIMSALAMVYLGAKDSTRTQINKVVRFDKLPGFGDSIEAQCGTSVNVHSSLRDILNQITKPNDVYSFSLASRLYAEERYPILPEYLQCVKELYRGGLEPINFQTAADQARELINSWVESQTNGIIRNVLQPSSVDSQTAMVLVNAIVFKGLWEKAFKDEDTQAMPFRVTEQESKPVQMMYQIGLFRVASMASEKMKILELPFASGTMSMLVLLPDEVSGLEQLESIINFEKLTEWTSSNVMEERKIKVYLPRMKMEEKYNLTSVLMAMGITDVFSSSANLSGISSAESLKISQAVHAAHAEINEAGREVVGSAEAGVDAASVSEEFRADHPFLFCIKHIATNAVLFFGRCVSP		higher titers	higher titers	stronger percentage	stronger percentage
OVA covalently linked to PBS-57 (conjugate, UniProt P01012 2-386, looked up, covalently linked to glycolipid PBS-57) Ovalbumin: GSIGAASMEFCFDVFKELKVHHANENIFYCPIAIMSALAMVYLGAKDSTRTQINKVVRFDKLPGFGDSIEAQCGTSVNVHSSLRDILNQITKPNDVYSFSLASRLYAEERYPILPEYLQCVKELYRGGLEPINFQTAADQARELINSWVESQTNGIIRNVLQPSSVDSQTAMVLVNAIVFKGLWEKAFKDEDTQAMPFRVTEQESKPVQMMYQIGLFRVASMASEKMKILELPFASGTMSMLVLLPDEVSGLEQLESIINFEKLTEWTSSNVMEERKIKVYLPRMKMEEKYNLTSVLMAMGITDVFSSSANLSGISSAESLKISQAVHAAHAEINEAGREVVGSAEAGVDAASVSEEFRADHPFLFCIKHIATNAVLFFGRCVSP		higher titers	higher titers	stronger percentage	stronger percentage
OVA covalently linked to PBS-14 (conjugate, UniProt P01012 2-386, looked up, covalently linked to glycolipid PBS-14) Ovalbumin: GSIGAASMEFCFDVFKELKVHHANENIFYCPIAIMSALAMVYLGAKDSTRTQINKVVRFDKLPGFGDSIEAQCGTSVNVHSSLRDILNQITKPNDVYSFSLASRLYAEERYPILPEYLQCVKELYRGGLEPINFQTAADQARELINSWVESQTNGIIRNVLQPSSVDSQTAMVLVNAIVFKGLWEKAFKDEDTQAMPFRVTEQESKPVQMMYQIGLFRVASMASEKMKILELPFASGTMSMLVLLPDEVSGLEQLESIINFEKLTEWTSSNVMEERKIKVYLPRMKMEEKYNLTSVLMAMGITDVFSSSANLSGISSAESLKISQAVHAAHAEINEAGREVVGSAEAGVDAASVSEEFRADHPFLFCIKHIATNAVLFFGRCVSP		higher titers	higher titers	stronger percentage	stronger percentage
